Test: soluble on expression in E. coli; label from the status in PepcDB or PDB records

Row | Sequence | soluble on expression in E. coli
1 | MSLWKNTIHSISSNLSLKNPATKDELTDIQKCLHVELPNDLYQLLQETNGIEGEYGDFIWSASKIKTENMSMRNIVDFKDLYMPFDCLLFFADGGNGDLFGYSILNGKVQRDDIYVWNHENDSRTWVALSLKTFMEWWESGKITIEGHHHHHH | soluble
2 | MSLRGGAQALECYSCVQKADDGCSPNKMKTVKCAPGVDVCTEAVGAVETIHGQFSMAVRGCGSGLPGKNDRGLDLHGLLAFIQLQQCAQDRCNAKLNLTSRALDPAGNESAYPPNGVECYSCVGLSREACQGTSPPVVSCYNASDHVYKGCFDGNVTLTAANVTVSLPVRGCVQDEFCTRDGVTGPGFTMSGSCCQGSRCNSDLRNKTYFSPREGHHHHHH | not soluble
3 | GMNTNLASFIVGLIIDENDRFYFVQKDGQTYALAKEEGQHTVGDTVKGFAYTDMKQKLRLTTLEVTATQDQFGWGRVTEVRKDLGVFVDTGLPDKEIVVSLDILPELKELWPKKGDQLYIRLEVDKKDRIWGLLAYQEDFQRLARPAYNNMQNQNWPAIVYRLKLSGTFVYLPENNMLGFIHPSERYAEPRLGQVLDARVIGFREVDRTLNLSLKPRSFEMLENDAQMILTYLESNGGFMTLNDKSSPDDIKATFGISKGQFKKALGGLMKAGKIKQDQFGTELI | soluble
4 | MIKPEYVVKLLSENMKKTRNPLGIKNEKTNNWWKKVEISKEGDWLFFTGMLYQLTPYIEATVKFLEKIENSRLQGLLTLSKAFPVPFSLLKAITPREAREEAETILQKVYFLLAKSVDVFYAPHLDFYSGILLYDFGHDEAFAEHAKFVCKRLESAGIEKIVTPDPHTTYALKVLYPKFTGVEFDVKSYIELLSDAKSLFNEEFVIHDPCYYGRYLELSDRVREVLNCAGVKYRGVRYSGRLTNCCGGPVEALSPKISREIARLRVEELGNSRIITFCPICLANLRRAGGNAVDFSMVVG | not soluble
5 | MNSALYANYLNILKQELVPALGCTEPIAIAYAAAKAHQVLGEFPDSVNMSLSGNIIKNVKGVTVPNSGGLKGIDVAAILGIVGGNADKALEVLSEITEDDIARTRELVKQHVCSCSLVEGVDNLYITAKVIKGDHFASVTIEHQHTNITRIEKDGEVILDNPYQAECKTVIDKSKLTVKDILDFADQVRIEDVQPIIDRQIKLNSAIAQEGLDNNYGAQIGKTLMHVWGKSVTTRACARAAAGSDARMGGCSMPVVINSGSGNQGMTVSLPVIVFADEWEVSHEKLCRSLVVSNLIAIHQKYYIGSLSAYCGAVSAACGAGAGITYMYGGTYQQVSLTIINTLGNVGGIVCDGAKPSCAAKIASSVDAALMAFQLSIQNKSFLPGEGIIKDDIEETIKSMGYIGRVGMRSTDTEILNVMIDRADINQGC | not soluble
6 | LNHIYNVAFWAEEIGKIVGLDEKRLAKLYLAGLLHDIGKVYIDERILNKEGRLTLQEYQEMKKHVDYSYNMVKDLMIWDIEDDVALWVVQHHEKFDGSGYPFGLKEEEITPEGRILKIADTLDA | soluble
7 | MPNKNGVGKKSPSTSKSSNNNKRREPEFRYEEKTAVHGGKTKYEEKTVVHGGKTKNVVAKKVPSKASVIVDKKASTTETTVPITVKKSLLSISTAYDRTVTEEKEKEKPKKKEKEKWSGEEASIKFVKSLGSINLKDEYDEIQKLPVQTERCKMWQSHSSRNRHNDSKCYDHNRIIVQMCKDDYINGSKINVPHFTPSIYLVQLPKMDSVDAVEEFWRVVFHEQCQTVHIIARPEELTNPAIDKLFCQESGAWLYANGFFVNTRKVEKKENAKADMFVVELLPEGCSNAVMCSVYLHTYWKPLFGPDRFGAQIRAAHQIAKNENGNSPTVIASVNGSGRNAALLTLAVVEDQLTRGKEPKISEIVRTIREQRPQSVDSYIQYVSLYMATNWLIKTKLPSGHEVVSKIKKFNEKATRSLPGSMMKTPTEEL | not soluble
8 | SLVTVSDVKQYHFCKAIPWINYVMGYREPSTFSMEEGKKISYEEVVKSLNLTTPVKYEVCLSYNGLSGCIDILAGDRKYTVVEVKAFKRGNFSHFRYQLLAYAYLVRKRLGIVERAILVMEGKKVLEIEPTEEHYRYIENVVKKIEEIVNSEKLPAVNVEKCDFCQYRRICPVSVWS | not soluble
9 | MNSAGLEQCGMIMTRKNYYITTDGLLKRNENTLYFINKDLKRPIPINKIYSIYSYGALTISSQALNLLSKEGIPIHFFNRYGFYSGSFYPRETLLSGDVIIKQAEHVIDHDKRIELARSFVRGAALNMRRVLSYYGIENGISDTLMDLDSSNSVTDVMNVEGRIRSDYYNAIDSILPEGFRIGKRTRRPPENMTNAMISFGNSLLYSTVITELYNTQLNPTISYLHEPFERRYSLALDLSEIFKPTLIDRMIISLIKKKAIKAEDFEHGMNHCLLNNSGKRKFLAEYDRRLGKTVKHRELGRKVSYRRLIRLEAYKLIKHLIGQKSYEPFVMWW | not soluble
10 | KNCCVYDMATNTLVDAAPYGERSSDYQLATLFHNPGNNNEYLLSQVIEVLDDICQSKEIASETKTKAHWLLSYEPRLPDGDKVKRLLSILEQTLEAFSK | not soluble
11 | MGSDKIHHHHHHYGLGRSWAPGLSQLDGVPRLGGTLDAPLVLNDASELSATPIHIHTRPAAHGDALIEAFRAELTAAQAEDRPVCVSAARHSMGGQSLPRGGHAITVDNAWIEPDTANQTYRVNGGARWRDVIAALDPIGFSPAVMQSNHDFGVAATFSVNAHGWPVPYGPMGATVREIRMVLPGGDLVTASRTENTDLFNLAVGGYGLAGLIVDMEVDMVPNQRLAPSFTPMPAADFPAAFRAAVDDPTMPMGYGRLNVTRESLFEEALLVTYSPTPDQSDIPPAIESGWLSYAASYLYRGQVGREGMKDWRWWVEADLGPRLAGESTRNSLMNEPVITLDDRDPTRVDILHEYFVPFDAFDGFLEACRDVIPDAFVEFLNVTLRFVDSDTDSLLPHSPTPRIAAVMSFTQEKTTRAEADHARMTRALIDRIVAIGGTYYLPYRPHATLDQFTAAYPNAPEFAAAKRALDPTLTLRNNLWDSYLADL | not soluble
12 | KIGERMLGTDPVTGESVVAKMGRYGAMVQKGRTDKENGIKAQFASLQPGQSIESITLEEALELFLLPKKLGQYEDADVMVAVGRFGPYIKHAGKFVGLPKDTEPLSVSLDDAIKYIADKREKEEKSLIKGFAEDPEMEIRTGRFGVYIKYKGKNYKVPKTVEDPEKLTLEECLKYVEEGETKPAKGKKKAPAKKTSAKKTAKK | not soluble
13 | MLMPKRTKYRKQMKGRNRGKAHRGNSIAFGDIAIKAIEHGRIDSRQIESARVAMTRHIKRAGKVWIRVFPDKPLTAKPLETRMGKGKGSVEKWVMNIKPGRIVYEMLGIEEGLAREALALAQSKLPFKTKIVTCESENEIYLEHHHHHH | soluble
14 | MEKLDGVANTLYVPLYGRIYVSKKFPEYFYDEMALKIEEKFTSGISKGSFEYTNMAYGARYYNMDKMIIKFIEEHKISNIILLGIGLETAYDRITQKCGLGEVNYYGIDLPEVIEIRKKYFGERKQETLIAGDMFEMEWKEQIDTSIPTLLIVSGVFQYFFEDKIIEFIKNLKKEFPYGELVFDTARKKTGLRFANWYIRRTGNLEALMHFYIEDSVDFSKKTDTILVEELTFFKDARELLRKKLNFITKLFMKIADSKRQALIIHLKWLEHHHHHH | not soluble
15 | GPVNPAENFRVLVKQKKASFEEASNQLINHIEQFLDTNETPYFMKSIDCIRAFREEAIKFSEEQRFNNFLKALQEKVEIKQLNHFWEIVVQDGITLITKEEASGSSVTAEEAKKFLAPKD | soluble
16 | MGSDKIHHHHHHMMFLFINISLAQTADTAVKSDELQTTTTSVDEVGVAPADPTPTLSKKELRRQRVAKRNLHYNILGGPSYTPDFGLLIGGSALMTFRMNPSDTTQQRSVVPMAIALMFEGGLNLFTKPQLFFKGDRFRIFGVFAYKNTLENFYGIGYSTNKDYPRGEDTSEYRYSGVQVNPWFLFRLGKSNFFAGPQIDFNYDKITKPAAGMIEQPSYIAAGGTDHGYSNLSSGLGFLLTYDTRDVPANAYRGTYLDFRGMMYNKAFGSDNNFYRLEIDYRQYKTLGKRKVLAWTVQTKNVFGNVPLTKYALSGTPFDLRGYYMGQFRDKSSHVMMAEYRQMINTDKSNWVKKMLNHVGYVAWGGCGFMGPTPGKIEGVLPNLGLGLRIEVQPRMNVRLDFGRDMVNKQNLFYFNMTEAF | not soluble
17 | MSWYTSCPKMLLGATAVAVPLGATVFRRESEKSENLLKIKKAKELVETTMAIQGIPGLSIAVSLDGKMVWKSGFGYANLESFAKCTGDSVMRIASISKPITATLAAQCVENGTLDLDEDIRKYLPEFPAKKFKNEDVKITMRQLLSHSAGIRHYATEKKKSETHEDPSNNNTETPEFLSNKPYNSSLDALAIFKNDDLVEKPGSKFSYTTYGLTLAGAVLEKCSGKTYRQLANQLFSDLGMRNTQLDTKEKIVPGRASYYQRNSKNILENCPEVDCSNKFAGGGIISNTTDLLIIANAILHSILSDSKNCLLQRETIRKFLEKQVPVDSKTSTGLGWFLVDGKDLKSIDGNISNSSFFYHTGAAVGASSVLLVNTSSGVCVAILCNLQNTTVLKLGRDIGDLFHGEI | soluble
18 | MGSDKIHHHHHHMNFDVAIIGGGLAGLTCAIALQQRGKRCVIINNGQAAIDFASGSLDLLSRMPSTTYGENRAVENLKENITALRNELPAHPYSLLGAEKVLAKAQDFERLANELHLDLIGSTEKNHWRVTGLGSLRGAWLSPNSVPTVQGNEPFPHKRIAVLGIEGYHDFQPQLLAANLVLNPQFEHCEVTSGFLNIPQLDELRKNAREFRSVNISQLLEHKLAFKDLVKEIIESAQGAEAVFLPACFGLENQEFMTALRDATKLALFELPTLPPSLLGMRQRIQLRHKFESLGGLMINGDSALNATFEGNQVRCINTRLLEDEEITADNFVLASGSFFSKGLISEFDKIYEPVFESDIIGVEGFNNKDRFTWTAHRFAHPQPYQSAGVAINAQCQVKKCGQFLTNLYAVGNVIGGFNALELGCGSGVAVVTALAVADEILAK | not soluble
19 | MAHHHHHHMAEDTITFLRTVGKLKETDRTGWVEHGIPNPESVSDHMYRVAVMCMMCPDEKLDRNKLIRMALCHDAGESIVGDISPKMGVSKEDKYNQEKAAVLHLTGLLEKESPLSRELHELWEEYEAQHTPEAQFLKDIDLLEMVAQAHAYELAHPKKDLSSFFVSGEKIKHPWARNIYETLLRTRSSEK | soluble
20 | MSLNIQQQVNEMFSGMINVTSPGAYKTATRGVITGGSVVLRNRISTANLISITPPSAKGGCGGINLYSGSFSFINGEEFVALMRNVASNAAGIVSGFAFELALDAMDAQTGGVIRNLANKIQALNQMFSNSCQLASGLVTNAKKAYEESTDFKSAMTAFGSNVSSDFFTAKSTKEDSPANRIAASGKAVQCENTGNVLWCAMMKSGLQSQILFGSDENAEFIMSMVGSYNVSLTNDASGGKNFAAHPMPKLITGEGLKILVEGSTNLDVKVYQCDQDDPDCSEPNIRTLTSFKGLETRILEDLQNNGILERFANGTATAADGNRIAYLASSRVGVNLMKITQKAGAQSGYDYLNQFAKKIAADASMSLIYQLLGHTEKGLTSLNMADAGKVIEDLRATKGELMDEYRSYIEDAMQGKDADGQAEKMLQMAPVFDSGTLPQGTINDNAGAEGHHHHHH | not soluble
21 | MEYLFLRRKKTRYTSVRQKTLLYRAASRRWEKEFALRTDVRRIDALIYKGILYLMEVRQVFLDSSLSLKTLSAMLETNQTYLSNVVNRYFGCNLKELVNTYRVEYAKELLRSGRCPIEEVPVRSGFGSKSPFYVAFGKVTGMTPRQYVAHERNPLKQEENN | not soluble
22 | ILQTTVDGNSTAISNLKSDISSNGLAITDLQDRVKSLESTASHGLSFSPPLSVADGVVSLDMDPYFCSQRVSLTSYSAEAQLMQFRWMARGTNGSSDTIDMTVNAHCHGRRTDYMMSSTGNLTVTSNVVLLTFDLSDITHIPSDLARLVPSAGFQAASFPVDVSFTRDSATHAYQAYGVYSSSRVFTITFPTGGDGTANIRSLTVRTGIDT | soluble
